The record followed here is patent US20170202931.

Assay in all cases: cell_activity
For data set [1], the system named is ZFN SBS 31523 (mouse albumin intron 1) (synthetic). As to conditions: as pair with 48641; mouse liver in vivo, males 4 months (females 45.69; 1 month 46.67 male, 34.05 female); deep sequencing.
Data set [2] concerns ZFN SBS 48641 (mouse albumin intron 1) (synthetic). The note with it: as pair with 31523; mouse liver in vivo, males 4 months (females 45.69; 1 month 46.67 male, 34.05 female); deep sequencing.
Data set [3] relates to ZFN pair SBS 47171 / SBS 47931 (human albumin) (synthetic). As to conditions: HepG2 cells with IDS donor, 3 days (62.27 with IDUA donor); MiSeq.

In the case of “TTTCCTGTAACGATCGGGAACTGGCATC (double strand) [31523 target site]”, the activity in data set [1] stood at 55.6 % indels.
In data set [2], “CTGAAGGTGGCAATGGTTCCTCTCTGCT (double strand) [48641 target site]” gave an activity of 55.6 % indels.
human albumin locus ZFN site registered an activity in data set [3] of 59.3 % indels.
